Test results taken from patent US11340215B2, “Screening method of anticancer agent focused on function of HP1 and evaluation system” (JAPANESE FOUNDATION FOR CANCER RESEARCH, priority 2016, dated 2022).
Changes are numbered by the printed parent chain.

Experiments:
Aurora B [1] = target: T1, Aurora B (Homo sapiens, UniProt Q96GD4); assay: In vitro kinase assay with recombinant INCENP, Aurora B and HP1; format: biochemical; settings: for activation of Aurora B: recombinant proteins, 1 μM HP1
Experimental: The kinase assay was carried out by adding a substrate in a kinase buffer (20 mM Tris-HCl, 50 mM MgCl2, 100 mM NaCl, 20 μM ATP, pH7.5) and 0.2 mCi/ml[γ^− ^32P]ATP. As the substrate, GST-Hec1 (1-80) or recombinant histones H3 (manufactured by New England Biolas) was used. Twenty nM INCENP and 120 nM GST-Aurora B were reacted in the presence or absence of 1 μM HP1 at 30° C. for 20 minutes and the reaction was terminated by Laemmli sample buffer. Phosphorylation was analyzed by Typhoon scanner (manufactured by GE Healthcare) and a liquid scintillation counter.
Using recombinant proteins of INCENP, Aurora B and HP1α, in vitro kinase assay was carried out (FIG. 6C). […] Accordingly, it was shown that physical binding of HP1 to INCENP is required for activation of Aurora B, and that HP1 has an allosteric effect on Aurora B.
Then, enzyme kinetics analysis of Aurora B was carried out. […] Further, analysis of proteins binding to GST-Aurora B was carried out by the GST pull down assay. As a result, the amount of Hec1 binding to GST-Aurora B increased in the conditions where HP1 can bind to INCENP. […] Accordingly, binding of HP1α to INCENP is required for activating Aurora B.
Target sequence in this assay (Q96GD4 whole entry): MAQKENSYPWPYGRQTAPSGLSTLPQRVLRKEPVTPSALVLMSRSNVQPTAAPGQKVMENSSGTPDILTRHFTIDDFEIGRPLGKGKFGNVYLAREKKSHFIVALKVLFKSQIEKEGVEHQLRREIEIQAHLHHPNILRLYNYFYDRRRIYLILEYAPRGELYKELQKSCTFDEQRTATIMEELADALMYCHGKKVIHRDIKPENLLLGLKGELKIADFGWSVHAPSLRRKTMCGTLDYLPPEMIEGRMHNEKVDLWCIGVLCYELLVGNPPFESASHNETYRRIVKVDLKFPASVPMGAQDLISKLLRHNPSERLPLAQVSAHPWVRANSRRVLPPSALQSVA
Target sequence in this assay (Q9NQS7 whole entry partner): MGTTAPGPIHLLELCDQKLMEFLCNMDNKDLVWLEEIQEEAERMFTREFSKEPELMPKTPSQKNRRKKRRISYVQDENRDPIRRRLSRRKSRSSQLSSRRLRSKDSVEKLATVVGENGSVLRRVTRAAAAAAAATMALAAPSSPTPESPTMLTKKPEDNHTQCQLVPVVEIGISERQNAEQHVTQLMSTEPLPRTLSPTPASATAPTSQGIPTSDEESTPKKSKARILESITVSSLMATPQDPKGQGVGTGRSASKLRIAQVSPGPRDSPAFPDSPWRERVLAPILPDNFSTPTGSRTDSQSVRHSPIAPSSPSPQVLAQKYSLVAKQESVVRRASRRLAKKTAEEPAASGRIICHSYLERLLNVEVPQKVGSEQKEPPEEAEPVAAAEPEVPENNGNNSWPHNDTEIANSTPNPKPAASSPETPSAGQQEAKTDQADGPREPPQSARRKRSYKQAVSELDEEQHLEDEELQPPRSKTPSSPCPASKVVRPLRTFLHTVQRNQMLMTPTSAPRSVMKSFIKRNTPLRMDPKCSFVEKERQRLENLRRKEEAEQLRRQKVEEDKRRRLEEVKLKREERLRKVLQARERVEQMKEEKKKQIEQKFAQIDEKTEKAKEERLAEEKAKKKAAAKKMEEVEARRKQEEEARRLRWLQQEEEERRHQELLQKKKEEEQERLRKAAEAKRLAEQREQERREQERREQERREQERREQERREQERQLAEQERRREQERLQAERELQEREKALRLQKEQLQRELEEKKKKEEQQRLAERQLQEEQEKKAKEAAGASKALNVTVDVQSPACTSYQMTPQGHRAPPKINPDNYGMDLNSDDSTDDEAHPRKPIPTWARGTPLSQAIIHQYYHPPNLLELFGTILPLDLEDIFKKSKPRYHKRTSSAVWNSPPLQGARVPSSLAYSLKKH

Aurora B [2] = target: T1, Aurora B; assay: Kinase activity of fractions immunoprecipitated with anti-HP1α-pS92 antibody or INCENP antibody; format: biochemical; design: endogenous in cells; settings: addition of inhibitor
Experimental: The cells in the mitotic phase were incubated in a solution, which was prepared by adding 1 U/μl OmniCleave Endonuclease (manufactured by Epicentre) in the above immunoprecipitation buffer, at 4° C. for 30 minutes. The solution was centrifuged at 4° C. and 15,000 rpm for 10 minutes and the supernatant was further centrifuged. The resultant supernatant was used for immunoprecipitation. Protein A-Sepharose (manufactured by Bio-Rad) having an antibody bound thereto, was allowed to react with cell extracts and subjected to immunoprecipitation. The sample obtained by immunoprecipitation was subjected to the immunoblotting using peroxidase-labeled Mouse TrueBlot ULTRA or Rabbit TrueBlot (manufactured by eBioscience) as a secondary antibody.
The kinase assay was carried out by adding a substrate in a kinase buffer (20 mM Tris-HCl, 50 mM MgCl2, 100 mM NaCl, 20 μM ATP, pH7.5) and 0.2 mCi/ml[γ^− ^32P]ATP. […] Phosphorylation was analyzed by Typhoon scanner (manufactured by GE Healthcare) and a liquid scintillation counter.
Next, we will describe that the binding of HP1 to CPC is necessary for activating Aurora B. Immunoprecipitation was carried out with anti-HP1α-pS92 antibody and INCENP antibody and proteins constituting CPC and subtypes of HP1 were analyzed by immunoblotting (FIG. 5H, left panel). […]
Target sequence in this assay (Q96GD4 whole entry): as the sequence (Q96GD4 whole entry) above
Target sequence in this assay (Q9NQS7 whole entry partner): as the sequence (Q9NQS7 whole entry partner) above
Target sequence in this assay (O15392 whole entry partner): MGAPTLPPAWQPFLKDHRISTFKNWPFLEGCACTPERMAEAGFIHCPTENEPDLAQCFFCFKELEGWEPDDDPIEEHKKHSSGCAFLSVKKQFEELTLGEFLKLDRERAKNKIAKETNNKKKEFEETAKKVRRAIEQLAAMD
Target sequence in this assay (Q53HL2 whole entry partner): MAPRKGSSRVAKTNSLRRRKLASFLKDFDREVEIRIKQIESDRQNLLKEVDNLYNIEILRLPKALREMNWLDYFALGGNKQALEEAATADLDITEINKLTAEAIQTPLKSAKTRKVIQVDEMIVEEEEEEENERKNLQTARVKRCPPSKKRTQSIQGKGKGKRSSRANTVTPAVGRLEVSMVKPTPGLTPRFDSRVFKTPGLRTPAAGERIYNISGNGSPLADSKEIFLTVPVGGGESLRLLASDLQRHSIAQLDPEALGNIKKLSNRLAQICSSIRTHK

Aurora B [3] = target: T1, Aurora B; assay: Immunostaining of metaphase cells with anti-HP1α-pS92 antibody; format: cell-based; design: endogenous in cells; settings: FIG. 5D
Experimental: (§1) Cells were cultured on a cover glass and immobilized with 4% paraformaldehyde in PHEM buffer solution (60 mM PIPES, 25 mM HEPES, 10 mM EGTA, 2 mM MgCl2, pH7.0) or PBS, at room temperature. Cells were treated with the above buffer solution containing 0.2 to 1.0% Triton X-100, and blocked with a 3% BSA-containing buffer. Images were obtained by AxiolmagerM1 miacroscope (manufactured by Zeiss) equipped with CoolSNAP HQ camera (manufactured by Photometrics) operated by MetaMorph software (manufactured by MDS Analytical Technologies). The intensity of fluorescence was analyzed by ImageJ software (National Institute of Health).
It was shown that the anti-HP1α-pS92 antibody sensitively detects phosphorylated HP1α even if it is used in immunostaining (FIGS. 5D, E). Cells of the interphase, cells of the metaphase, cells of the metaphase where the expression of HP1α was depleted by siRNA and cells of the metaphase where the activity of Aurora B was suppressed by ZM447439 were immunostained with an anti-HP1α-pS92 antibody (FIG. 5D). Only the metaphase cells used as the control were stained. In the interphase cells, cells where the expression of HP1α was depleted and cells where the activity of Aurora B was suppressed, phosphorylated HP1α was not detected.
Target sequence in this assay (Q96GD4 whole entry): as the sequence (Q96GD4 whole entry) above
Target sequence in this assay (Q9NQS7 whole entry partner): as the sequence (Q9NQS7 whole entry partner) above
Target sequence in this assay (O15392 whole entry partner): as the sequence (O15392 whole entry partner) above
Target sequence in this assay (Q53HL2 whole entry partner): as the sequence (Q53HL2 whole entry partner) above

Aurora B [4] = target: T1, Aurora B; assay: Phosphorylation of Aurora B substrates in HeLa cells, fluorescence microscopy with phospho-specific antibodies; format: cell-based; design: endogenous in cells; host or cells: HeLa
Experimental: as §1
Target sequence in this assay (Q96GD4 whole entry): as the sequence (Q96GD4 whole entry) above
Target sequence in this assay (Q9NQS7 whole entry partner): as the sequence (Q9NQS7 whole entry partner) above
Target sequence in this assay (O15392 whole entry partner): as the sequence (O15392 whole entry partner) above
Target sequence in this assay (Q53HL2 whole entry partner): as the sequence (Q53HL2 whole entry partner) above
Next, activation of Aurora B was analyzed based on degree of phosphorylation of a substrate. HeLa cells were transfected with siRNA of all subtypes of HP1 to inhibit expression of all HP1 subtypes. […] The cells were immobilized and then analyzed by a fluorescence microscope using an antibody recognizing phosphorylation of serine at position 10 of histone H3 (H3-pS10, 6G3, manufactured by Cell Signaling Technology) (FIG. 4B); an antibody recognizing phosphorylation of serine at position 44 of Hec1 (Hec1-pS44, Non Patent Literature 8); an Hec1 antibody (9G3.23, manufactured by Novus Biologicals) (FIG. 4C); and an antibody recognizing phosphorylation of serine at position 100 of Dsn1 (Dsn-pS100, Non Patent Literature 9) (FIG. 4D).

HP1α = target: T2, HP1α (Homo sapiens, UniProt P45973); assay: Binding assay of INCENP (positions 121 to 270) and HP1α by isothermal titration calorimetry
T2 construct: His tag or GST tag
T2 sequence (P45973 whole entry): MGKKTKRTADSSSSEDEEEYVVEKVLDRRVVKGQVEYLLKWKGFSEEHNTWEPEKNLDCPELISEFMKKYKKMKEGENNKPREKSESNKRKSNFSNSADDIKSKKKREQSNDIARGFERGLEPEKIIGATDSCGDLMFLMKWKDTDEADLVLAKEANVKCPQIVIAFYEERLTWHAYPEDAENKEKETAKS
Experimental: Wild type HP1α and a region at positions 121 to 270 in INCENP (SEQ ID NO: 8, INCENP WT) were used in the binding assay. The region at positions 121 to 270 in INCENP contains an important motif […], required for binding to HP1. A mutant (SEQ ID NO: 9, INCENP 3A) was obtained by substituting three amino acids in this region with alanine residues and used as a control. A dissociation constant thereof was determined by isothermal titration calorimetry. As an isothermal titration calorimetry apparatus, any device may be used. For example, using MicroCal iTC2000 system (manufactured by GE healthcare biosciences), measurement may be carried out, in accordance with a conventional method.
The above peptides, to which His tag or GST tag was attached, were subjected to isothermal titration calorimetry to determine a dissociation constant. Note that, the dissociation constant was computationally obtained based on average values of 5 experiments.

Molecule: HP1β: heterochromatin protein 1 subtype β
- activation of Aurora B (Aurora B [1]): highly activate

Molecule: HP1α: recombinant heterochromatin protein 1 subtype α
- reaction rate of substrate phosphorylation by Aurora B per unit time (Aurora B [1]; enzyme kinetics analysis, FIG. 6G): significantly increases
- activation of Aurora B (Aurora B [1]): highly activate

Molecule: COc1cc2c(Nc3ccc(NC(=O)c4ccccc4)cc3)ncnc2cc1OCCCN1CCOCC1 [ZM447439]
- kinase activities of the fractions obtained by immunoprecipitation with the anti-HP1α-pS92 antibody and the INCENP antibody (Aurora B [2]): inhibited
- phosphorylated HP1α detected by immunostaining (Aurora B [3]): not detected
- Phosphorylation by Aurora B of substrates (H3, Hec1, Dsn1) (Aurora B [4]; FIGS. 4B to 4D legend): suppressed
- effect on phosphorylation of Hec1 and Dsn1 (Aurora B [4]; HeLa cells, low concentration (0.4 μM)): suppressive effect equal to the effect produced by depletion of HP1

Molecule: HP1 mutant I165E: HP1 mutant which cannot form a dimer, cannot bind to INCENP
- activation of Aurora B (Aurora B [1]): does not activate

Molecule: HP1γ: heterochromatin protein 1 subtype γ
- activation of Aurora B (Aurora B [1]): highly activate

B1: INCENP 3A: mutant (SEQ ID NO: 9) obtained by substituting three amino acids of the P×V×I motif with alanine residues (protein)
chain: LRRVTRAAAAAAAATMALAAPSSPTPESPTMLTKKPEDNHTQCQLVAVAEAGISERQNAEQHVTQLMSTEPLPRTLSPTPASATAPTSQGIPTSDEESTPKKSKARILESITVSSLMATPQDPKGQGVGTGRSASKLRIAQVSPGPRDSP
modifications: HP1 binding site mutant
- binding to HP1 (HP1α): does not bind to HP1

B2: INCENP WT: region at positions 121 to 270 in INCENP (SEQ ID NO: 8), with His tag or GST tag (protein, listed as Homo sapiens)
chain: B1 chain with A47P, A49V, A51I
modifications: His tag or GST tag
- Binding (HP1α; binding to wild type HP1α, isothermal titration calorimetry, His tag or GST tag peptides): ◯
